Reference: patent US20220089647A1 (FUJIFILM, published 2022)
Starred links: 1 amine or outer side, 2 acyl side, 3 side chain; linkers in the order of their positions; H or OH if unused. Positions of bridges follow the written chain, without caps; N, C: chain ends. Non-standard residues stand in square brackets, D forms with d. Primed or numbered codes have the meaning given here. No end group written: not given here. Dab(acetyl)″ = 2-amino-4-(acetylamino)butanoic acid, acetyl CH3 carbon bonded to the S of Hcy (S-CH2-C(=O)-NH-), O=C(C[*:3])NCC[C@H](N[*:1])C(=O)[*:2]; Dab(acetyl) = 2-amino-4-acetylamino-butanoic acid residue (N-γ-acetyl-diaminobutyric acid), CC(=O)NCC[C@H](N[*:1])C(=O)[*:2]; Orn(acetyl)″ = N-delta-acetyl-ornithine, acetyl CH3 carbon bonded to the S of Hcy, O=C(C[*:3])NCCC[C@H](N[*:1])C(=O)[*:2]; Lys(acetyl) = N-epsilon-acetyl-lysine, acetyl CH3 carbon bonded to the S of Hcy, O=C(C[*:3])NCCCC[C@H](N[*:1])C(=O)[*:2]; Dab(acetyl)(3) = 2-amino-4-(acetylamino)butanoic acid (Dab with N-γ-acetyl), CC(=O)NCC[C@H](N[*:1])C(=O)[*:2]; Dap(acetyl) = 2-amino-3-acetylamino-propanoic acid residue, CC(=O)NC[C@H](N[*:1])C(=O)[*:2]; hCys = N[C@@H](CCS)C(=O)O

target: T1, human integrin αvβ5 (human, UniProt P06756 31-992; P18084 24-719, limits assumed); test: SPR, Biacore 3000, peptide immobilised; A = KD 50 nM or less
T1 construct: Heterodimer flowed as analyte at 30, 100, 300 and 1,000 nM in HEPES buffer with 5 mM MgCl2
Protocol: However, only for the cyclic peptides 125, 126, and 127, in which the number of lysine residues having an amino group as the immobilizing functional group was zero, the amount of the sample solution to be supplied to the sensor chip was set to 500 μL instead of 20 μL. Further, 70 μL of the mixed aqueous solution of 0.2 M EDC and 0.04 M NHS was added to another flow channel of the same sensor chip without immobilizing the sample, and then blocking treatment and washing treatment were carried out. Hereinafter, the obtained immobilization-treated sensor chip is referred to as an “immobilization-treated sensor chip A”.
After adding human integrin αvβ5 for 10 minutes at 25° C., which was diluted to 30 nM using a HEPES buffer solution to which magnesium chloride was added to 5 mM, in each flow channel of the immobilization-treated sensor chip A prepared in (1) above, the same HEPES buffer solution (containing 5 mM magnesium chloride) was allowed to flow as a running buffer for 30 minutes, and measurement was carried out with Biacore 3000. Then, a regeneration treatment of removing human integrin αvβ5 was carried out by allowing a 0.5 M EDTA aqueous solution to flow through each flow channel for 10 minutes. Further, the above-described measurement process consisting of adding integrin for 10 minutes, allowing a running buffer to flow for 30 minutes, carrying out measurement with Biacore 3000, and carrying out regeneration treatment with 0.5 M EDTA aqueous solution was carried out in the same manner for 100 nM human integrin αvβ5, 300 nM human integrin αvβ5, and 1,000 nM human integrin αvβ5. Dissociation constant between the cyclic peptide and human integrin αvβ5 was calculated from the difference between the value measured by Biacore 3000 in the flow channel immobilized with the cyclic peptide and the value measured by Biacore 3000 in the flow channel unimmobilized with the cyclic peptide, in a case where each concentration of human integrin αvβ5 was allowed to flow, and the integrin binding property was evaluated according to the following evaluation standards. It is preferable that the evaluation result satisfies the evaluation standard A, B, or C.

T1 sequence (P06756 31-992 limits assumed, chain 1 of 2): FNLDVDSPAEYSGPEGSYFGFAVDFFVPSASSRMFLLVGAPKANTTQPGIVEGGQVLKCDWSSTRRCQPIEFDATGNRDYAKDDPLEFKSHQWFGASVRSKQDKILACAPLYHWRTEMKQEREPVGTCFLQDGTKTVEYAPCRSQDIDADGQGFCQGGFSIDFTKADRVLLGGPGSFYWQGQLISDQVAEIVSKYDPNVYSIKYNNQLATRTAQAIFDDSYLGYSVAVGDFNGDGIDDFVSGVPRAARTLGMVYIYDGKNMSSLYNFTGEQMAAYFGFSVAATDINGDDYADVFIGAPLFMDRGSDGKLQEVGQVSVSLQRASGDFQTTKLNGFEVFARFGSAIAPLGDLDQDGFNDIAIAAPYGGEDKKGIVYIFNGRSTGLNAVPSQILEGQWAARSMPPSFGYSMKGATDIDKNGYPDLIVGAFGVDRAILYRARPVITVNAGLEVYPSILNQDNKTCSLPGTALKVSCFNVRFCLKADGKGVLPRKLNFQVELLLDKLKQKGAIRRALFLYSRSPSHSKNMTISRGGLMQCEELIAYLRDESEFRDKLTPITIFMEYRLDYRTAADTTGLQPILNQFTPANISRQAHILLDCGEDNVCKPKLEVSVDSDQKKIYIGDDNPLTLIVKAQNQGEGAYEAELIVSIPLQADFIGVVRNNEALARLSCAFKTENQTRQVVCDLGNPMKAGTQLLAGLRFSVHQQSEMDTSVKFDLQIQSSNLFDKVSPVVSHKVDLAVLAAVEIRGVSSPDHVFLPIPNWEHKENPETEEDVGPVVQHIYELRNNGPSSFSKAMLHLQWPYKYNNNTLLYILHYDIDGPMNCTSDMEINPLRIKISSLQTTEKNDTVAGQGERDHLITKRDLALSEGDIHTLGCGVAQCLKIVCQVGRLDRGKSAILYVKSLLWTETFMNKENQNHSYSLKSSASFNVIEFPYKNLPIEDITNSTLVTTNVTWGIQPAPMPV
T1 sequence (P18084 24-719 limits assumed, chain 2 of 2): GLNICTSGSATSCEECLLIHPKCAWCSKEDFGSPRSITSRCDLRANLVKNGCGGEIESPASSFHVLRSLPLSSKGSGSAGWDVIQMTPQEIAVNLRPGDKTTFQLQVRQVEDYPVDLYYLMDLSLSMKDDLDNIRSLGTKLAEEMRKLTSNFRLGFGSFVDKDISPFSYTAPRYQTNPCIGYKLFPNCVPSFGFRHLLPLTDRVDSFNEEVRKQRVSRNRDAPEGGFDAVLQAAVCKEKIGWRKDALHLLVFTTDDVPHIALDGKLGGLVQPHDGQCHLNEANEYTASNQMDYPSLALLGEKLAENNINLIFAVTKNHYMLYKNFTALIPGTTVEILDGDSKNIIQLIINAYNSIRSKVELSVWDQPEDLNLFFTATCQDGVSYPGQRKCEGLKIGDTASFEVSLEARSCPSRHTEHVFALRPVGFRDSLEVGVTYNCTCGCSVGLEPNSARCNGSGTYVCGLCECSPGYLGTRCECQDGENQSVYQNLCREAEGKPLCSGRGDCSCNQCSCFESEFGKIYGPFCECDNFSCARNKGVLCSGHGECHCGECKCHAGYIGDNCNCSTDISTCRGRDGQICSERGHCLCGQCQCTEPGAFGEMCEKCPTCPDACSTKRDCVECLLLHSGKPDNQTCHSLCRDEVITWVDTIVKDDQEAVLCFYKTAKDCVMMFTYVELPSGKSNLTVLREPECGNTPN

| Binder | dissociation constant | dissociation constant (KD) |
| --- | --- | --- |
| AXVPRGDTFAXA (not fully specified; A-(Hcy)-VPRGDTFA(Dab(acetyl))A; thioether bond Hcy-Dab(acetyl), no lysine) [Cyclic peptide 125] | ≤ 50 nM |  |
| KKKXIPRGDNFX (not fully specified; KKK-(Hcy)-IPRGDNF(Dab(acetyl)); thioether bond Hcy-Dab(acetyl)) [Cyclic peptide 13] |  | ≤ 50 nM |
| KKK[hCys]IPRGDTF[Dab(acetyl)″] (thioether 4-12) [Cyclic peptide 63] | ≤ 50 nM |  |
| KKK[hCys]VPRGDNF[Dab(acetyl)] (thioether 4-12) [Cyclic peptide 14] |  | ≤ 50 nM |
| KKK[hCys]VPRGDTF[Dab(acetyl)″] (thioether 4-12) [Cyclic peptide 64] | ≤ 50 nM |  |
| KKKG[hCys]IPRGDTFR[Orn(acetyl)″]A (thioether 5-14) [Cyclic peptide 115] | ≤ 50 nM |  |
| A[hCys]IPRGDSFA[Dab(acetyl)″]AKKK (thioether 2-11) [Cyclic peptide 100] | ≤ 50 nM |  |
| KKKG[hCys]IPRGDTFR[Dap(acetyl)]A (thioether 5-14) [Cyclic peptide 114] | ≤ 50 nM |  |
| [hCys]VPRGDTFA[Dab(acetyl)″]KKK (thioether 1-10) [Cyclic peptide 103] | ≤ 50 nM |  |
| KKKGXIPRGDTFRXA (not fully specified; KKKG-(Pen)-IPRGDTFR(Dap(acetyl))A; thioether bond Pen-Dap(acetyl)) [Cyclic peptide 128] | ≤ 50 nM |  |
| KKKKKA[hCys]VPRGDTFA[Dab(acetyl)″]A (thioether 7-16) [Cyclic peptide 111] | ≤ 50 nM |  |
| KKKA[hCys]IPRGDSFA[Dab(acetyl)]G (thioether 5-14) [Cyclic peptide 93] | ≤ 50 nM |  |
| KKKG[hCys]VPRGDTFA[Dab(acetyl)″]G (thioether 5-14) [Cyclic peptide 105] | ≤ 50 nM |  |
| KKKG[hCys]VPRGDSFA[Dab(acetyl)]G (thioether 5-14) [Cyclic peptide 99] | ≤ 50 nM |  |
| KKKG[hCys]IPRGDSFA[Dab(acetyl)]G (thioether 5-14) [Cyclic peptide 95] | ≤ 50 nM |  |
| KKKG[hCys]IPRGDSFA[Dab(acetyl)]A (thioether 5-14) [Cyclic peptide 94] | ≤ 50 nM |  |
| KKKAXVPRGDTFAXA (not fully specified; KKKA(Dab(acetyl))VPRGDTFA-(Hcy)-A; thioether bond Dab(acetyl)-Hcy) [Cyclic peptide 122] | ≤ 50 nM |  |
| KKKAXVPRGDTFAXA (not fully specified; KKKA(Dab(acetyl))VPRGDTFA-(Pen)-A; thioether bond Dab(acetyl)-Pen) [Cyclic peptide 136] | ≤ 50 nM |  |
| KKKA[hCys]VPRGDTFA[Dab(acetyl)″]G (thioether 5-14) [Cyclic peptide 107] | ≤ 50 nM |  |
| KKKG[hCys]VPRGDSFA[Dab(acetyl)]A (thioether 5-14) [Cyclic peptide 98] | ≤ 50 nM |  |

| Binder | dissociation constant | dissociation constant (KD) |
| --- | --- | --- |
| KKKA[hCys]VPRGDSFA[Dab(acetyl)]A (thioether 5-14) [Cyclic peptide 96] | ≤ 50 nM |  |
| KKKA[hCys]VPRGDTFA[Dab(acetyl)″]A (thioether 5-14) [Cyclic peptide 108] | ≤ 50 nM |  |
| KKKG[hCys]VPRGDTFA[Dab(acetyl)″]A (thioether 5-14) [Cyclic peptide 106] | ≤ 50 nM |  |
| KKKA[hCys]VPRGDSFA[Dab(acetyl)]G (thioether 5-14) [Cyclic peptide 97] | ≤ 50 nM |  |
| KKK[hCys]VPRGDTFA[Dab(acetyl)″] (thioether 4-13) [Cyclic peptide 104] | ≤ 50 nM |  |
| KKK[hCys]IPRGDSFA[Dab(acetyl)″] (thioether 4-13) [Cyclic peptide 101] | ≤ 50 nM |  |
| KKK[hCys]IPRGDTFA[Dab(acetyl)″] (thioether 4-13) [Cyclic peptide 62] | ≤ 50 nM |  |
| KKK[hCys]IPRGDNFR[Dab(acetyl)(3)] (thioether 4-13) [Cyclic peptide 11] |  | ≤ 50 nM |
| KKK[hCys]VPRGDSFA[Dab(acetyl)″] (thioether 4-13) [Cyclic peptide 102] | ≤ 50 nM |  |
| KKK[hCys]IPRGDTFR[Dab(acetyl)″] (thioether 4-13) [Cyclic peptide 61] | ≤ 50 nM |  |
| A[hCys]VPRGDTFA[Dab(acetyl)″]AKKK (thioether 2-11) [Cyclic peptide 109] | ≤ 50 nM |  |
| KKKGXIPRGDTFRXA (not fully specified; KKKG(Orn(acetyl))IPRGDTFR-(Hcy)-A; thioether bond Orn(acetyl)-Hcy) [Cyclic peptide 119] | ≤ 50 nM |  |
| KKKG[Dab(acetyl)″]IPRGDTFR[hCys]A (thioether 5-14) [Cyclic peptide 118] | ≤ 50 nM |  |
| KKK[hCys]IPRGDTF[Dab(acetyl)″]A (thioether 4-12) [Cyclic peptide 60] |  | ≤ 50 nM |
| KKKKA[hCys]VPRGDTFA[Dab(acetyl)(3)]A (thioether 6-15) [Cyclic peptide 110] | ≤ 50 nM |  |
| KKKKKKA[hCys]VPRGDTFA[Dab(acetyl)″]A (thioether 8-17) [Cyclic peptide 112] | ≤ 50 nM |  |
| KKKG[Dap(acetyl)]IPRGDTFR[hCys]A (thioether 5-14) [Cyclic peptide 117] | ≤ 50 nM |  |
| AXIPRGDSFAXA (not fully specified; A-(Hcy)-IPRGDSFA(Dab(acetyl))A; thioether bond Hcy-Dab(acetyl), no lysine) [Cyclic peptide 126] | ≤ 50 nM |  |
| AXIPRGDSFAXG (not fully specified; A-(Hcy)-IPRGDSFA(Dab(acetyl))G; thioether bond Hcy-Dab(acetyl), no lysine) [Cyclic peptide 127] | ≤ 50 nM |  |
| KKKG[hCys]IPRGDTFR[Lys(acetyl)]A (thioether 5-14) [Cyclic peptide 116] | ≤ 50 nM |  |
